From article PMC10700433
One block for each binder: values may come before it.

Tests used:
[1] = biological target: human 4-1BB on activated primary human immune cells (human (endogenous in primary PBMC)) (UniProt Q07011)
[2] = biological target: ATOR-1017 (evunzekibart) (human); assay: BLI; Octet RED96; antibodies captured on FABG2 biosensor tips, recombinant Fcγ receptors in solution at suitable concentration ranges; association and dissociation at physiological pH; conditions: remark: other sources report otherwise

Sequence of human 4-1BB on activated primary human immune cells (human (endogenous in primary PBMC)) (Q07011 24-255): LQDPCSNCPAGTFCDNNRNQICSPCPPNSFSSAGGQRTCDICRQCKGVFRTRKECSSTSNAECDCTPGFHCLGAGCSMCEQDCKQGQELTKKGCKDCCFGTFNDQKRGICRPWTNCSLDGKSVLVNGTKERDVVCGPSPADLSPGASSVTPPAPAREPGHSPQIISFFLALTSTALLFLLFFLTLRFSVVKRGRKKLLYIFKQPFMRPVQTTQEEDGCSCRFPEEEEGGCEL

IFNγ production by IL-2 pre-stimulated human NK cells co-cultured with FcγRI-CHO cells, serially diluted ATOR-1017 [1]: 0.1 nM | IFNγ production by anti-CD3-activated human CD8+ T cells co-cultured with FcγRI-CHO cells, 72 h, serially diluted ATOR-1017 [1]: 0.2 nM
B1: ATOR-1017 (evunzekibart) (antibody, V domains shown)
VH: EVQLLESGGGLVQPGGSLRLSCAASGFNFGYSYMSWVRQAPGKGLEWVSSIGSTSSHTYYADSVKGRFTISRDNSKNTLYLQMNSLRAEDTAVYYCARVYSSPGIDYWGQGTLVTVSS
VL: DIQMTQSPSSLSASVGDRVTITCRASQSIGSTLNWYQQKPGKAPKLLIYGASSLQSGVPSRFSGSGSGTDFTLTISSLQPEDFATYYCQQYYTWVPFTFGQGTKLEIK

Kd [2]: 200 nM
B2: mouse FcγRI, P26151 25-404 (receptor)
chain: EVVNATKAVITLQPPWVSIFQKENVTLWCEGPHLPGDSSTQWFINGTAVQISTPSYSIPEASFQDSGEYRCQIGSSMPSDPVQLQIHNDWLLLQASRRVLTEGEPLALRCHGWKNKLVYNVVFYRNGKSFQFSSDSEVAILKTNLSHSGIYHCSGTGRHRYTSAGVSITVKELFTTPVLRASVSSPFPEGSLVTLNCETNLLLQRPGLQLHFSFYVGSKILEYRNTSSEYHIARAEREDAGFYWCEVATEDSSVLKRSPELELQVLGPQSSAP
modifications: here or on the partner: soluble ectodomain assumed for BLI

Kd [2]: 800 nM
B3: human FcγRIIb, P31994 43-310 (receptor)
chain: TPAAPPKAVLKLEPQWINVLQEDSVTLTCRGTHSPESDSIQWFHNGNLIPTHTQPSYRFKANNNDSGEYTCQTGQTSLSDPVHLTVLSEWLVLQTPHLEFQEGETIVLRCHSWKDKPLVKVTFFQNGKSKKFSRSDPNFSIPQANHSHSGDYHCTGNIGYTLYSSKPVTITVQAP
modifications: here or on the partner: soluble ectodomain assumed for BLI

Kd [2]: 1000 nM
B4: human FcγRIIa, P12318 34-317 (receptor)
chain: QAAAPPKAVLKLEPPWINVLQEDSVTLTCQGARSPESDSIQWFHNGNLIPTHTQPSYRFKANNNDSGEYTCQTGQTSLSDPVHLTVLSEWLVLQTPHLEFQEGETIMLRCHSWKDKPLVKVTFFQNGKSQKFSHLDPTFSIPQANHSHSGDYHCTGNIGYTLFSSKPVTITVQVPSMGSSSPMG
modifications: here or on the partner: Soluble extracellular domain by convention (UniProt topology); construct limits not printed. Allotype of the recombinant protein not stated in the excerpt: given as H131 (H167 in precursor numbering);
